Assay results as given in patent US20110262931A1 (published 2011).

Biological target: T1, mast cell carboxypeptidase purified from human skin (human, UniProt P15088 110-417)
T1 construct: also called human skin carboxypeptidase; carboxypeptidase purified from skin
T1 sequence (looked up): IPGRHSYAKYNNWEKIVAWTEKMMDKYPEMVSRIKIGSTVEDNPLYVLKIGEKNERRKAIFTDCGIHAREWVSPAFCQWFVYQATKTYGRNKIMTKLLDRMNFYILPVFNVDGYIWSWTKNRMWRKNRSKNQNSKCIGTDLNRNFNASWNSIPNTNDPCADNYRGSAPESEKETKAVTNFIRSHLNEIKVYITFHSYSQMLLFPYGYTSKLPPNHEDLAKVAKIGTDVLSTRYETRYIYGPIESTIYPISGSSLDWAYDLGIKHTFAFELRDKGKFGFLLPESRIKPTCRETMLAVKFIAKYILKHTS
Test: affinity chromatography on PCI-agarose
Method: Mast cell carboxypeptidase was purified from finely chopped extracts of human skin (obtained from macroscopically normal tissue at leg amputation) using a method adapted from that of Goldstein et al. (1989, ibid). […] After washing the column, carboxypeptidase was eluted with unconjugated PCI and dialysed to remove the inhibitor. The purity of the enzyme preparation was assessed by SDS-PAGE and silver staining (Pierce, Rockford, Ill., USA). Proteolytic activity was determined by monitoring the cleavage of […] hippuryl-Phe-Arg (Sigma) at 260 nm.

B1: potato tuber carboxypeptidase inhibitor (other, UniProt P01075 1-39, looked up)
chain: QQHADPICNKPCKTHDDCSGAWFCQACWNSARTCGPYVG
notes: also called PCI
binding result: binds
